The values that follow come from publication PMC3926959.

For the assay, the target named is T1, Ndc1-mTurquoise2 (S. cerevisiae), P32500.
T1 chain: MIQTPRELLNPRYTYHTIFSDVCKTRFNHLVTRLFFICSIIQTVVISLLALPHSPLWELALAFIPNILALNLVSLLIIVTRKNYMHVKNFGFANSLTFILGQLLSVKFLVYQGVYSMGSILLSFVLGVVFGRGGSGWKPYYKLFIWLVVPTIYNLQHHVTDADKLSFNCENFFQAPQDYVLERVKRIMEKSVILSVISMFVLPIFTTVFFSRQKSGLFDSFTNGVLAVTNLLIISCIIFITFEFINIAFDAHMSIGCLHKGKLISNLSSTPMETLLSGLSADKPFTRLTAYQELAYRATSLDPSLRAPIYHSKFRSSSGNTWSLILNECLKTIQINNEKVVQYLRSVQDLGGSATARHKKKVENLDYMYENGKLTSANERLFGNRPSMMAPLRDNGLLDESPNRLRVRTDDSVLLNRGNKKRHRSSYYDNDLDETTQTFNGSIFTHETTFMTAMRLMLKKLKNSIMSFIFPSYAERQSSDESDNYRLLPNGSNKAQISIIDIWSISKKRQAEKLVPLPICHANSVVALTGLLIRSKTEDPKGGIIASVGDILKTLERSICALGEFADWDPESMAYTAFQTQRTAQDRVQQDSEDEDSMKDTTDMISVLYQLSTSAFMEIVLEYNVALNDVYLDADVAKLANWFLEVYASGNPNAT
Briefly: line-scanning fluorescence cross-correlation spectroscopy. As to conditions: remark: other sources report otherwise.

B1: Mps3-YFP, P47069 1-682 (natural protein)
chain: MNNSNEHRREEAGAANEQMPYNKAVKSAYADVLKDKMNREQEISLRAIKKGIYTDGGETDNYDMDKENDSAYEMFKKNLDFPLDQHNDDDDDDPYIEDNGQETDGYSDEDYTDEADKSFIEDSDSDSYDLESNSDFEENLESSGEAKKLKWRTYIFYGGLFFVFYFFGSFLMTTVKNNDLESHSSGATSSPGKSFSNLQKQVNHLYSELSKRDEKHSSELDKTVKIIVSQFEKNIKRLLPSNLVNFENDINSLTKQVETISTSMSELQRRNHKFTVENVTQWQDQLVKQLDTHLPQEIPVVINNSSSLLIIPELHNYLSALISDVIESPGIGTAGSAESRWEYDLNRYVKEILSNELQYIDKDYFIQEMNRRLQSNKQEIWEEITNRLETQQQQQQQQVQQDYSNVPQQYSSILMKRLIHQIYNSNQHQWEDDLDFATYVQGTKLLNHLTSPTWRQGSGVQPIELLTDSKQSSSTYWQCENEPGCSWAIRFKTPLYLTKISYMHGRFTNNLHIMNSAPRLISLYVKLSQTKEIKALQTLANQYGFGQHHKRDRNYIKIAKFEYRLTDSRIRQQMYLPPWFIQLKPLVRSIVFQVDENYGNKKFISLRKFIINGVTPQDLQIIENNEFPVLLGDTPEYGVTQNTDEGKRKVLLSKPPYASSSTSTKFHPASNVPSFGQDELDQ
The molecule B1 came in with a percent of Ndc1-mTurquoise2 in a complex (FCCS) of 2%.
